{
  "source": "paper PMC6235889",
  "about": "“Conformational ensemble of the human TRPV3 ion channel” (Nature Communications, 2018)",
  "proteins": {"B1": {"name": "full-length human TRPV3 containing the point mutation T96A (natural protein, UniProt Q8NET8-1 1-790, looked up)", "chain": "MKAHPKEMVPLMGKRVAAPSGNPAILPEKRPAEITPTKKSAHFFLEIEGFEPNPTVAKTSPPVFSKPMDSNIRQCISGNCDDMDSPQSPQDDVTEAPSNPNSPSAQLAKEEQRRKKRRLKKRIFAAVSEGCVEELVELLVELQELCRRRHDEDVPDFLMHKLTASDTGKTCLMKALLNINPNTKEIVRILLAFAEENDILGRFINAEYTEEAYEGQTALNIAIERRQGDIAALLIAAGADVNAHAKGAFFNPKYQHEGFYFGETPLALAACTNQPEIVQLLMEHEQTDITSRDSRGNNILHALVTVAEDFKTQNDFVKRMYDMILLRSGNWELETTRNNDGLTPLQLAAKMGKAEILKYILSREIKEKRLRSLSRKFTDWAYGPVSSSLYDLTNVDTTTDNSVLEITVYNTNIDNRHEMLTLEPLHTLLHMKWKKFAKHMFFLSFCFYFFYNITLTLVSYYRPREEEAIPHPLALTHKMGWLQLLGRMFVLIWAMCISVKEGIAIFLLRPSDLQSILSDAWFHFVFFIQAVLVILSVFLYLFAYKEYLACLVLAMALGWANMLYYTRGFQSMGMYSVMIQKVILHDVLKFLFVYIVFLLGFGVALASLIEKCPKDNKDCSSYGSFSDAVLELFKLTIGLGDLNIQQNSKYPILFLFLLITYVILTFVLLLNMLIALMGETVENVSKESERIWRLQRARTILEFEKMLPEWLRSRFRMGELCKVAEDDFRLCLRINEVKWTEWKTHVSFLNEDPGPVRRTDFNKIQDSSRNNSKTTLNAFEEVEEFPETSV", "notes": "Transient receptor potential vanilloid channel 3 (TRPV3), human, full length, with the stabilising point mutation T96A; Homotetramer; Residues 1-117, which include T96A, were not resolved in the reconstructions; No removal of the FLAG tag is described; also called hTRPV3; TRPV3_(T96A); source: Sf9 insect cells (baculovirus), purified (anti-FLAG resin, size exclusion), reconstituted in PMAL-C8 …"}},
  "target": "the molecule itself",
  "test": "cryo-EM structure; apo TRPV3 T96A in PMAL-C8 amphipol, 50 mM Tris pH 8, 150 mM NaCl; Titan Krios 300 keV; C4 symmetry, ~3.4 Å",
  "data": [
    {"protein": "B1", "values": [
      {"measurement": "stoichiometry N", "value": 4}
    ]}
  ]
}
